Substitutions are numbered along the chain they refer to.
T1: HCV Core1-169 (HCV-1, UniProt P26664 1-169)
T1 construct: also called recombinant HCV core antigen
T1 sequence: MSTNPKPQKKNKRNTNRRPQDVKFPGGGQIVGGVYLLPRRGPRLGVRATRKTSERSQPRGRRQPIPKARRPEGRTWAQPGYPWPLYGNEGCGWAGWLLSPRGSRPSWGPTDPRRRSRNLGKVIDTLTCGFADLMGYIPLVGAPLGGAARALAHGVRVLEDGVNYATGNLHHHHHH

B1: HCV 208A-159 (antibody, V domains shown)
VH: QLQQSGPAQVKPGASVMISCKTSGYTFTENAMHWVKQSHGKSLEWIGGVNPNNGDTIFNQKFKDKAALTVDKSSSTAFMELRSLTSEESTVYYCVRRELDFFDYWGQGTSVTVSS
VL: DIVLTQSPASLAVSLGQRATISCRASQSVSTSRYSYVHWYQQKPGQPPKLLIKYAANLESGVPARFSGSGSGTDFTLNIHPVAEEDAAAYYCQHSWEFPFTFGSGTKLEIKR
B2: HCV 208A-334 (antibody, V domains shown)
VH: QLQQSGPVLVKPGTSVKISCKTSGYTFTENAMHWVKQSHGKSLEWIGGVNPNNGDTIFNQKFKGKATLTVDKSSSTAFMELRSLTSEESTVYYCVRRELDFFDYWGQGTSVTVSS
VL: B1 VL with V37M, A56S, A87T, E97G
B3: HCV 208A-741 (antibody, V domains shown)
VH: B1 VH with A8V, Q9L, D64G, A67T
VL: B1 VL with A19T, R24G, Y34F, V37M, A56S, A87T
B4: HCV 208B-251 (antibody, V domains shown)
VH: B1 VH with A8V, Q9L, M17K, F58Y, D64G, A67T, T90P, Y93F
VL: B1 VL with Q17K, R18K, V37M, Q46H, A56S, A87T
B5: HCV 208B-556 (antibody, V domains shown)
VH: B1 VH with A8V, Q9L, D64G, A67T, L81F
VL: B1 VL with V37M, A56S, A87T, A89T
B6: HCV 208A-830 (antibody, V domains shown)
VH: EVRLQQPGPEVEKPGASVKISCKTSGYTFTEYAIHWVKQSHGESLEWIGGINPSNGDPIYNQIFKDKATLTVDRSSNTAYMGLRSLTVGDSGVYFCVRRQLDYFDFWGQGASLTVSS
VL: B1 VL with A25S, V37L, A56S, A83G, A87P, A89T
B7: HCV 208A-877 (antibody, V domains shown)
VH: QLQQSGPELVKPGASVKISCKTSGYTFTENAMHWVKQSRGKSLEWIGGVNPNNGDTVYTQKFKGKATLTVAKSSSTAYMELRTMTCEESTVYYCASREPDFFDYWGQGSSVTVSS
VL: QIVLTQSPAIMSVSPGEKVSMTCSASSSVTYMHWYQQKSGTSPKRWIYDTSELASGVPARFSGSGSGTTYSLTISSMEAEDAATYYCQQWSNKPLTFGAGTKLELKR
B8: HCV 208B-1024 (antibody, V domains shown)
VH: EVQLVESGGDLVKPGGSLKLSCAASGFTFSNYGMSWVRQTPDKRLEWVATISSGGSYSYYPDSVKGRFTISRDNAKNILYLQMSSLKSEDTAMYYCASLYYGYGDYWGQGTAFTVSS
VL: DVLMTQTPLSLPVSLGDQASISCRSSQSIVHSNGNTYLEWYLQKLGQSPKLLIYRVSNRFSGVPDRFSGSGSGTDFTLKISRVEAEDLGVYYCFQGSHVPWTFGGGTKLEIKR
B9: HCV 208A-1064 (antibody, V domains shown)
VH: EVQLQQSGPELVKPGASVKISCKTSGYTFTEYAMHWMKQSHGKSLEWIGGINPTNGDTIYNQKFKDKAKLTVDRSSSTAYMELRSLTSDDSALFYCARRELDYFASWGQGTTLTVSS
VL: DIVLTQSPASLIVSLGQTATISCRASQSVSTSRFSYLHWIQQKPGQPPKLLIKYASNLESGVPVRFSGSGSGTDFTLNIHPVEEEDTATYFCQHSWEFPFTFGSGTKLKIKR
B10: HCV 208A-293 (antibody, V domains shown)
VH: B9 VH with T24A, Y27F, T58A, A105P
VL: B9 VL with T18R, L37V, T76I, K109E
B11: HCV 208B-1094 (antibody, V domains shown)
VH: B9 VH with K63R
VL: B9 VL with V29L, L37V
B12: HCV 208B-1096 (antibody, V domains shown)
VH: QVQLQQSGAGLAKPGASVKMSCKASGYTFTANKMHWAKQRPGQGLEWIGYIDPSSGYTEYNHKIQYKATLTADTSSSTAYMQLSTLTFEDSAVYYCTNFAYWGQGTLVTVSA
VL: DIVMTQTPLTLSVTIGQPASISCKSSQSLLFTNGKTYLNWFLQRPGQSPKRLIYLLSKLDSGVPDRFSGSGSGTDFTLKISRVEAEDLGVYYCLQSTYFPLTFGAGTKLELKR
B13: HCV 208B-589 (antibody, V domains shown)
VH: B12 VH with Y66D, T85S
VL: B12 VL
B14: HCV 208B-178 (antibody, V domains shown)
VH: DVKLVESGGGLVKLGGSLKLSCAASGFTFSSYYMSWVRQTPEKRLELVAAINSNGGSTYYPDTVKGRFTISRDNAKNTLYLQMSSLKSEDTALYYCARHGGLGRRDWYFDVWGAGTTVTVSS
VL: DIVLTQSPASLAVSLGQRATISCRASESVDNYGISFMHWYQQKPGQPPKLLIYRASNLESGIPARFSGSGSRTDFTLTINPVETDDVATYYCQQSNKDPFTFGSGAKLEIKR
B15: HCV 208B-189 (antibody, V domains shown)
VH: QVHLQQSGAELAKPGASVQMSCKASGYTFTANKMHWARQRPRQGLEWIGYIDPASGYTEYNQKIKDRATLTADKSSSTAYMQLSSLTSEDSAVYYCTNFAYWGQGTLVTVST
VL: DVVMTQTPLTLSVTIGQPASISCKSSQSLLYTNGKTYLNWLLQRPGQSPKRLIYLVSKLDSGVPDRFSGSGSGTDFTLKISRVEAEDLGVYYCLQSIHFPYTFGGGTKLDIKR
B16: HCV 208A-352 (antibody, V domains shown)
VH: QGQMQQSGAELVKPGASVKLSCKTSGFTFSSSFISWLKQKPGQSLEWIAWIYAGTGNTNYNQKFTDKAQLTVDTSSSTAYMQFSSLTTEDSAIYYCAISGTGFTYWGQGTLVTVSA
VL: B8 VL with T5A, S14T, I29L, Y41F, L45P, R55N, W101L, G105S
B17: HCV 208B-281 (antibody, V domains shown)
VH: B16 VH with M4L, F33Y, K40R, N57G, T104I
VL: B8 VL with I29L, S32N, Y41F, L45P, R55K, W101F, G105S
B18: HCV 208B-327 (antibody, V domains shown)
VH: EVQLVESGGGLVKPGGSLKLSCAASGFTFSDSYMYWVRQTPDQRLEWVATISDGGSYTFYPDSVKGRFTISRDNAQNNLYLQMSSLKSEDTAMYYCASPHAGYFGWFAYWGRGTLVTVSA
VL: DIVMTQAAFSNPVTPGTSVSISCRSSKSLLHSNGITYLYWYLQKPGQSPQLLIYQMSKIASGVPDRFRSSGSGTDFTLRISRVEAADVGVYYCAQNLELPWTFGGGTKLEIKR
B19: HCV 208B-395 (antibody, V domains shown)
VH: B12 VH with A37T, E59Q, Y66D, T85S
VL: DIVLTQSPATLSVTPGDRVSLSCRASQRIYNYLHWYQQKSHESPRLLIKYASQSISGIPSRFSGSGSGTDFILTINSVETEDFGMYFCQQSNSWPLTFGAGTKLELRR
B20: HCV 208B-408 (antibody, V domains shown)
VH: EVKLVESGGGLVQPGGSLRLSCASSGFTFTDYYMSWVRQPPGKALEWLGFIRNKAYGYTTEFSASVNGRFTISRDDSQSVPYLQMNTLRAEDSATYYCARVLYYDYGGFAYWGQGTLVTVST
VL: DIQMTQSPASLSASVGETVTITCRASGNIHTYLAWYQQKQGKSPQLLVYNANTLADGVPSRFSGSGSGTQFSLKINSLQPDDFGSYYCQHFWSAPWTFGGGTQLEIKR
B21: HCV 208B-515 (antibody, V domains shown)
VH: QVQLQQPGAELVKPGASLKLSCRASGYTFTSYWIHWVKQRPGQGLEWIGEIDPSDSYTNYNQKFKGKATLTVDKSSRAAYMQLSSLTSEDSAVYYCARHYYGVFDSWGQGTKLTVSS
VL: QIVFTQYPAIMSASLGERVTMTCTASSSVTSSYLHWFQQKPGSSPKLWIYSTSNPGSGVPARFSGRGSGTSYSLSISSMEAEDAATYYCLQFHRSPWTFGGGTKLEIRR
B22: HCV 208B-517 (antibody, V domains shown)
VH: QVQLKQSGPGLVQPSQSLSITCTVSGFSLITHGVHWVRQSPGKGLEWLGVIWSGGSTDYNAAFISRLSISKDTSKSQVFLKMSSLQADDTAIYYCARNGGATAFDYWGQGTTLTVSS
VL: DIVMTQSPATLSVTPGDRVSLSCRASQSISDYLHWYQQKSHESPRLLIKYASQSISGIPSRFRGSGSGSHFTLSINSVEPEDVGVYYCQNGHSFPWTFGGGTKLEIKR
B23: HCV 208B-547 (antibody, V domains shown)
VH: B15 VH with H3Q, Q19K, A31S, R38K, R42G, A54S, R67K, T112A
VL: EVVLTQSPAITAASLGQKVTITCRASSSVSYMHWYRQKSGTSPQPWIYEISTLASGVPTRFRASGSGTSYSLTISSMEAEDAAIYYCQQWNYPLTFGAGTKLELKR
B24: HCV 208B-612 (antibody, V domains shown)
VH: EVQLQQSGPELVKPGASVKMSCKASGYRFTSYVMHWVRQKPGQGLEWIGYIDPHNDDTKYSEKFRGKATLTSDKSSTTAYMELSSLTSEDSAVYYCVRYSYDRDYSPMDYWGQGTSVTVSS
VL: QIVLTQSPTLMSASPGEKVTMTCSASSTVTYIYWYQQKPGSSPRLWMYDTFNLVSGVPARFSGSRSGTSYFLTISSMEGEDAATYYCQQYSDSPYTFGGGTKLEIKR

Legend:
HCV Core1-169 [1] = molecular target: T1, HCV Core1-169; test: EIA, core1-169 coated on plate
HCV Core1-169 [2] = molecular target: T1, HCV Core1-169; test: EIA, core1-169 captured by mAb 14-153-229
Further: test concentration or dose not given here.

Row | Binder | OD (A492) (HCV Core1-169 [1]) [OD] | OD (A492) (HCV Core1-169 [2]) [OD]
1 | B1 | 0.57 | 1.29
2 | B2 | 1.28 | 1.9
3 | B3 | 1.2 | 1.9
4 | B4 | 0.79 | 1.39
5 | B5 | 0.74 | 1.35
6 | B6 | 1.16 | 2.09
7 | B7 | 0.9 | 1.25
8 | B8 | 0.6 | 0.31
9 | B9 | 0.94 | 1.57
10 | B10 | 1.41 | 2.31
11 | B11 | 0.9 | 1.51
12 | B12 | 0.49 | 1.75
13 | B13 | 0.68 | 1.29
14 | B14 | 0.89 | 1.09
15 | B15 | 0.49 | 1.81
16 | B16 | 0.1 | 0.53
17 | B17 | 0.09 | 0.11
18 | B18 | 0.14 | 0.11
19 | B19 | 0.5 | 1.95
20 | B20 | 0.09 | 0.09
21 | B21 | 0.06 | 0.08
22 | B22 | 0.79 | 0.97
23 | B23 | 0.46 | 1.62
24 | B24 | 0.18 | 1.2

From US20170052184A1 (published 2017)
